Measured values from article PMC10397247.
Blank lines part the entries; values can stand above or below the binder they belong to.

Legend:
4H3855-bA = target: T1, 4H3855-bA; assay: two-hybrid library CCNG1;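 further: natural log of median RNA to DNA barcode read ratio; higher means stronger binding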
T1 chain: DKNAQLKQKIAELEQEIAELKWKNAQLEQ

4H4001-bA = target: T2, 4H4001-bA; assay: two-hybrid library CCNG1;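 further: natural log of median RNA to DNA barcode read ratio; higher means stronger binding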
T2 chain: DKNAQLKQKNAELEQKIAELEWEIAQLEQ

4H454-bA = target: T3, 4H454-bA; assay: two-hybrid library CCNG1;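 further: natural log of median RNA to DNA barcode read ratio; higher means stronger binding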
T3 chain: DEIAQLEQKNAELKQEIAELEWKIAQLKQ

4H568-bA = target: T4, 4H568-bA; assay: two-hybrid library CCNG1;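 further: natural log of median RNA to DNA barcode read ratio; higher means stronger binding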
T4 chain: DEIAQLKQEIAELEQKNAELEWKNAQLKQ

4H607-bA = target: T5, 4H607-bA; assay: two-hybrid library CCNG1
T5 chain: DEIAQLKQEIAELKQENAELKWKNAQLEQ

4H687-bA = target: T6, 4H687-bA; assay: two-hybrid library CCNG1
T6 chain: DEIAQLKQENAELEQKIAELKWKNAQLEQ

4H717-bA = target: T7, 4H717-bA; assay: two-hybrid library CCNG1
T7 chain: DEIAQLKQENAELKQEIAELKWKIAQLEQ

4H72-bA = target: T8, 4H72-bA; assay: two-hybrid library CCNG1
T8 chain: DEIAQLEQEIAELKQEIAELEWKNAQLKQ

4H754-bA = target: T9, 4H754-bA; assay: two-hybrid library CCNG1; conditions: mean of both orientations
T9 chain: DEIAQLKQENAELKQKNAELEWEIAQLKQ

4H797-bA = target: T10, 4H797-bA; assay: two-hybrid library CCNG1
T10 chain: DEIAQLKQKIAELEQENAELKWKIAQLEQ

4H883-bA = target: T11, 4H883-bA; assay: two-hybrid library CCNG1
T11 chain: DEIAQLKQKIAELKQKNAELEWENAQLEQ

4H908-bA = target: T12, 4H908-bA; assay: two-hybrid library CCNG1
T12 chain: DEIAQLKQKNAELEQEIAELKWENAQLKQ

4H918-bA = target: T13, 4H918-bA; assay: two-hybrid library CCNG1
T13 chain: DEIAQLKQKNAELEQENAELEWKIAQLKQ

4H953-bA = target: T14, 4H953-bA; assay: two-hybrid library CCNG1
T14 chain: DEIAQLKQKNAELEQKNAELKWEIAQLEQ

4H967-bA = target: T15, 4H967-bA; assay: two-hybrid library CCNG1
T15 chain: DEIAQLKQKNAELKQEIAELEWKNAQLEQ

4H3015-AA = target: T16, 4H3015-AA; assay: two-hybrid library CCmax
T16 chain: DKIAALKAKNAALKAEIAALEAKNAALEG

4H3073-AA = target: T17, 4H3073-AA; assay: two-hybrid library CCmax; conditions: mean of both orientations
T17 chain: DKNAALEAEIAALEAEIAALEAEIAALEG

4H3438-AA = target: T18, 4H3438-AA; assay: two-hybrid library CCmax; conditions: mean of both orientations
T18 chain: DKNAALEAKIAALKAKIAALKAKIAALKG

4H347-AA = target: T19, 4H347-AA; assay: two-hybrid library CCmax; conditions: mean of both orientations
T19 chain: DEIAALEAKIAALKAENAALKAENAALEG

4H406-AA = target: T20, 4H406-AA; assay: two-hybrid library CCmax; conditions: mean of both orientations
T20 chain: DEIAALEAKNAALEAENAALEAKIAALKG

4H452-AA = target: T21, 4H452-AA; assay: two-hybrid library CCmax; conditions: mean of both orientations
T21 chain: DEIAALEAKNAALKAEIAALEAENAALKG

4H56-AA = target: T22, 4H56-AA; assay: two-hybrid library CCmax; conditions: mean of both orientations
T22 chain: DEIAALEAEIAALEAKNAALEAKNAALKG

4H_APH = target: T23, 4H_APH; assay: two-hybrid library CCmax; conditions: mean of both orientations
T23 chain: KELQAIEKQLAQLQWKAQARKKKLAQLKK

4H_BCR = target: T24, 4H_BCR; assay: two-hybrid library CCmax; conditions: mean of both orientations
T24 chain: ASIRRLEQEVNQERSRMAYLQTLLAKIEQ

4H_GCN4 = assay: two-hybrid library CCmax
Chain of 4H_GCN4 (chain, as listed by the source): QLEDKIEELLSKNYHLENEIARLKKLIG

GCN2_T = assay: two-hybrid library CCmax; conditions: mean of both orientations

interaction score (4H3855-bA): 0.372
interaction score (4H4001-bA): 0.153
interaction score (4H454-bA): -0.709
interaction score (4H568-bA): -0.231
interaction score (4H607-bA): -0.96
interaction score (4H687-bA): -0.551
interaction score (4H717-bA): -0.336
interaction score (4H72-bA): 0.932
interaction score (4H754-bA): -1.21
interaction score (4H797-bA): -0.875
interaction score (4H883-bA): -1.04
interaction score (4H908-bA): -0.51
interaction score (4H918-bA): -1.43
interaction score (4H953-bA): -1.69
interaction score (4H967-bA): -0.636
Binder: DKNAQLKQKIAELEQEIAELKWKNAQLEQ [4H3855-bA]

interaction score (4H3015-AA): -1.16
interaction score (4H3073-AA): 0.065
interaction score (4H3438-AA): -1.63
interaction score (4H347-AA): -1.96
interaction score (4H406-AA): -0.891
interaction score (4H452-AA): -1.36
interaction score (4H56-AA): -1.59
interaction score (4H_APH): -2.92
interaction score (4H_BCR): -1.81
interaction score (4H_GCN4): -1.28
interaction score (GCN2_T): -1.44
Binder: DKIAALKAKNAALKAEIAALEAKNAALEG [4H3015-AA]
